“And” between values parts separate entries of the source, which are not always exact repeats. Equal entries are not always repeated.
How the values were obtained:
[1] = molecular target: BASS-NoC double mutant with Cys at residues 671 and 788 (Drosophila) (UniProt P46863); test: SEC + other: sucrose density gradient centrifugation
[2] = molecular target: BASS-NoC double mutant with Cys at residues 671 and 791 (Drosophila) (UniProt P46863); test: as above
[3] = molecular target: BASS-NoC single mutant with Cys at residue 671 (Drosophila) (UniProt P46863); test: as above
[4] = molecular target: BASS-NoC single mutant with Cys at residue 788 (Drosophila) (UniProt P46863); test: as above
[5] = molecular target: BASS-NoC single mutant with Cys at residue 791 (Drosophila) (UniProt P46863); test: as above
SEC = molecular target: the molecule itself; test: SEC
native MS = molecular target: the molecule itself; test: native MS

**Q.** Which stoichiometry N [1] does the source give for “BASS-NoC double mutant with Cys at residues 671 and 788 (from UniProt P46863 631-920) (domain or fragment)” here?
**A.** 4

**Q.** “BASS-NoC double mutant with Cys at residues 671 and 791 (from UniProt P46863 631-920) (domain or fragment)” was tested. Which stoichiometry N [2] did it give?
**A.** 4

**Q.** For “BASS-NoC single mutant with Cys at residue 671 (from UniProt P46863 631-920) (domain or fragment)”, which stoichiometry N [3] is on record?
**A.** 4

**Q.** How did the stoichiometry N [4] turn out when “BASS-NoC single mutant with Cys at residue 788 (from UniProt P46863 631-920) (domain or fragment)” was run?
**A.** 4

**Q.** Which stoichiometry N [5] does the source give for “BASS-NoC single mutant with Cys at residue 791 (from UniProt P46863 631-920) (domain or fragment)” here?
**A.** 4

B1: BASS-core (BASS 631–835) (domain or fragment, Drosophila, UniProt P46863 631-835, looked up)
chain: EQMQQQQLLMSKEIQTNLQVIEENNQRHKAMLDSMQEKFATIIDSSLQSVEEHAKQMHKKLEQLGAMSLPDAEELQNLQEELANERALAQQEDALLESMMMQMEQIKNLRSKNSISMSVHLNKMEESRLTRNHRIDDIKSGIQDYQKLGIEASQSAQAELTSQMEAGMLCLDQGVANCSMLQVHMKNLNQKYEKETNENVGSVRV
**Q.** With B1 as the molecule, how does the “stoichiometry N” value (SEC) read?
**A.** 4

B2: BASS (bipolar assembly) domain of kinesin-5, residues 631–920 (domain or fragment, Drosophila, UniProt P46863 631-920, looked up)
chain: EQMQQQQLLMSKEIQTNLQVIEENNQRHKAMLDSMQEKFATIIDSSLQSVEEHAKQMHKKLEQLGAMSLPDAEELQNLQEELANERALAQQEDALLESMMMQMEQIKNLRSKNSISMSVHLNKMEESRLTRNHRIDDIKSGIQDYQKLGIEASQSAQAELTSQMEAGMLCLDQGVANCSMLQVHMKNLNQKYEKETNENVGSVRVHHNQVEIICQESKQQLEAVQEKTEVNLEQMVDARQQLITEDRQRFIGHATVATDLVQESNRQFSEHAEHQRQQLQICEQELVRFQ
**Q.** For B2, which “stoichiometry N” value (native MS) is on record?
**A.** 2 and 4

B3: BASS 631–790 (domain or fragment, Drosophila, UniProt P46863 631-790, looked up)
chain: EQMQQQQLLMSKEIQTNLQVIEENNQRHKAMLDSMQEKFATIIDSSLQSVEEHAKQMHKKLEQLGAMSLPDAEELQNLQEELANERALAQQEDALLESMMMQMEQIKNLRSKNSISMSVHLNKMEESRLTRNHRIDDIKSGIQDYQKLGIEASQSAQAEL
**Q.** For B3, which “stoichiometry N” value (SEC) is on record?
**A.** 4 and 2

— article PMC3562449 (Nature Communications, 2013)
